Measured values reported in article doi:10.1101/2023.02.27.530324v2.

Legend:
[1] = substrate: CCCCCCCCC=O; assay: in vivo luminescence of E. coli cells, aldehyde titration, nonlinear fit; type: cell-based, Photorhabdus luminescens; details: whole E. coli K12 MG1655 pABX cells; apparent constant; cellular FMNH2 and O2
[2] = substrate: CCCCCC=O; assay: as above; type: cell-based, Photorhabdus luminescens; details: whole E. coli K12 MG1655 pABX cells; apparent constant; cellular FMNH2 and O2

B1: PlLuxAB (Photorhabdus luminescens) (protein)
chain: MKFGNFLLTYQPPQFSQTEVMKRLVKLGRISEECGFDTVWLLEHHFTEFGLLGNPYVAAAYLLGATKKLNVGTAAIVLPTAHPVRQLEDVNLLDQMSKGRFRFGICRGLYNKDFRVFGTDMNNSRALAECWYGLIKNGMTEGYMEADNEHIKFHKVKVNPAAYSRGGAPVYVVAESASTTEWAAQFGLPMILSWIINTNEKKAQLELYNEVAQEYGHDIHNIDHCLSYITSVDHDSIKAKEICRKFLGHWYDSYVNATTIFDDSDQTRGYDFNKGQWRDFVLKGHKDTNRRIDYSYEINPVGTPQECIDIIQKDIDATGISNICCGFEANGTVDEIIASMKLFQSDVMPFLKEKQRSLLY
- Km [1]: 0.025 ± 0.002 mM
- Km [2]: 7 ± 2 mM
